Assay results as given in US20080226630A1.

Molecular target: RSV protein F (recombinant or purified F protein) (human respiratory syncytial virus, strain not stated)
Experiment: SPR Biacore 3000, Fab over amine-coupled recombinant protein F

For “Fab fragment derived from commercially available Palivizumab (Synagis)”, the Kd was 3.78 nM, the koff was 0.000757 s⁻¹ and the kon was 200000 M⁻¹ s⁻¹. It also gave a t1/2 of 15 min.
